The values that follow come from patent US7105647.

In assay [1] the target is AH receptor nuclear translocator (ARNT), full length (human) (UniProt P27540). The experiment in a line: yeast two-hybrid, Galacto-Light lacZ assay, 1 µM βNF.
The target is the same in assay [2]. The experiment in a line: yeast two-hybrid, lacZ reporter (FIG. 3).
The target is the same in assay [3]. The experiment in a line: yeast two-hybrid, Galacto-Light lacZ assay, with vs without 1 µM βNF.
The target in assay [4] is MOP2 (human) (UniProt Q99814). The experiment in a line: cell-based or functional assay.
The target in assay [5] is MOP1/HIF1α (human) (UniProt Q16665). The experiment in a line: cell-based or functional assay.
Assay [6] deals with MOP4 (human) (UniProt Q99743). The experiment in a line: cell-based or functional assay.
Assay [7] deals with Human CLOCK, full length (human) (UniProt O15516). The experiment in a line: cell-based or functional assay.
Chain of Human CLOCK, full length (human) (O15516 whole entry): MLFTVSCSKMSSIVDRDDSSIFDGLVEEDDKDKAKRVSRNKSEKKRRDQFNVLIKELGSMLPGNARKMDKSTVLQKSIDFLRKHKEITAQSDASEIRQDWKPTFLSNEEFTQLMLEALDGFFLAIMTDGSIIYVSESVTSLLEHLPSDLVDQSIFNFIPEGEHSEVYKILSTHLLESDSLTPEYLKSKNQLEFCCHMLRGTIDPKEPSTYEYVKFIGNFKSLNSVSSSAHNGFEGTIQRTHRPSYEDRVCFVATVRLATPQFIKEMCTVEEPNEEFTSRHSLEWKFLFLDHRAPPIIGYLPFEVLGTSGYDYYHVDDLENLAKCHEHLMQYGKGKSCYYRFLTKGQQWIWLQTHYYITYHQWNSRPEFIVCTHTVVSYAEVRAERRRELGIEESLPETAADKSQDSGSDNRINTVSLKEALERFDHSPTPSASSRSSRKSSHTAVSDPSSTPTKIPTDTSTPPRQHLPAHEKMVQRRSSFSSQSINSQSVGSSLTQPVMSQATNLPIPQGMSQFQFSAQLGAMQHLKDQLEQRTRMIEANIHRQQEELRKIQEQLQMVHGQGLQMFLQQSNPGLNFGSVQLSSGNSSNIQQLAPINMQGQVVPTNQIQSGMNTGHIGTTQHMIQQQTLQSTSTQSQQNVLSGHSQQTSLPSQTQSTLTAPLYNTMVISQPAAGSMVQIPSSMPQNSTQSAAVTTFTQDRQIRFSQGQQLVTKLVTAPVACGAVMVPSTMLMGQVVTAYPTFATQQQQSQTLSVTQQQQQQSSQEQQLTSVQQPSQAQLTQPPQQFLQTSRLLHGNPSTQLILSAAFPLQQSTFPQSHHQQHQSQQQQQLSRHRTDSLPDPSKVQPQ

Chain of AH receptor nuclear translocator (ARNT), full length (human) (P27540 whole entry): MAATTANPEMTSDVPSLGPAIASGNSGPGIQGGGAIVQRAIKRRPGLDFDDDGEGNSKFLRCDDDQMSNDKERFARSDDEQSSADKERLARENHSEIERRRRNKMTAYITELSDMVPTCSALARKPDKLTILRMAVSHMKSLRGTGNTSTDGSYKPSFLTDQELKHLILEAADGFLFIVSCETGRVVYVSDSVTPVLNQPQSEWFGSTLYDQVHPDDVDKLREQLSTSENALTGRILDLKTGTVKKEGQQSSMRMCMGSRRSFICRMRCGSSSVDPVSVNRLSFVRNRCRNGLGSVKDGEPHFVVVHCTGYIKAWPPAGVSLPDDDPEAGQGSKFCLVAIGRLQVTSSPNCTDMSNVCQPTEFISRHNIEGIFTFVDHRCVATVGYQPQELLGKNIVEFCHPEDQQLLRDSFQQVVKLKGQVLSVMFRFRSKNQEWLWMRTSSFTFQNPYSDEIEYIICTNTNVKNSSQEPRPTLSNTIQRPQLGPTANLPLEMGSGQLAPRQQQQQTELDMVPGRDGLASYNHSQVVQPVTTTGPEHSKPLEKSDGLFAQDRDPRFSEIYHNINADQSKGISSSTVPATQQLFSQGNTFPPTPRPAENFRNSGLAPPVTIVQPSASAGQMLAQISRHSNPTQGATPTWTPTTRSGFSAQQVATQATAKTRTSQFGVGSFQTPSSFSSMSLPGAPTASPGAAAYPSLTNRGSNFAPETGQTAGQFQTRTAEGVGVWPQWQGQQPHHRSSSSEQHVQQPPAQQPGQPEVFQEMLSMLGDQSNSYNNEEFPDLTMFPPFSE
Chain of MOP2 (human) (Q99814 other isoform, or with tags, fused parts or gaps limits assumed): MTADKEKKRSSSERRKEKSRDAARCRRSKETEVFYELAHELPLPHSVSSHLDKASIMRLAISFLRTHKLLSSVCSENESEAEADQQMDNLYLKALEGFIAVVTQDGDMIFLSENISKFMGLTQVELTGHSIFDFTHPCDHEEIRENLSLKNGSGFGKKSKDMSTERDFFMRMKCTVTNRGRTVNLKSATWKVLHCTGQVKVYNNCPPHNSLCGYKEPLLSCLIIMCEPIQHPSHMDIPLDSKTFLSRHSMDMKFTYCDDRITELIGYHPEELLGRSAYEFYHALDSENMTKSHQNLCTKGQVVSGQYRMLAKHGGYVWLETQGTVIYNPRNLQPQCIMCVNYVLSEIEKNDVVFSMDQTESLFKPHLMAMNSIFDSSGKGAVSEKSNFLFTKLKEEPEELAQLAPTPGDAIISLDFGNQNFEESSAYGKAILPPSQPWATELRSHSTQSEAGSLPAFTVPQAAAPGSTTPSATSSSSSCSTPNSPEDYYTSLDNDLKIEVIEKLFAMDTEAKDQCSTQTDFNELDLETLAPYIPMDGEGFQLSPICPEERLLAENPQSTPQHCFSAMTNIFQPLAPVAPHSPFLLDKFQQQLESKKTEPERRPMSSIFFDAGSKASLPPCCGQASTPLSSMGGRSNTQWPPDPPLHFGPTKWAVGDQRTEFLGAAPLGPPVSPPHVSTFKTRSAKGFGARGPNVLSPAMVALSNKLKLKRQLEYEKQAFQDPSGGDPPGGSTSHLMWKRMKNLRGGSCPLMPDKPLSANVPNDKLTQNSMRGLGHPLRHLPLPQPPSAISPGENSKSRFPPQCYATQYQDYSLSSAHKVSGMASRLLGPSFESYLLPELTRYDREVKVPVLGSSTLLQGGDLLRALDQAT
Chain of MOP1/HIF1α (human) (Q16665 whole entry): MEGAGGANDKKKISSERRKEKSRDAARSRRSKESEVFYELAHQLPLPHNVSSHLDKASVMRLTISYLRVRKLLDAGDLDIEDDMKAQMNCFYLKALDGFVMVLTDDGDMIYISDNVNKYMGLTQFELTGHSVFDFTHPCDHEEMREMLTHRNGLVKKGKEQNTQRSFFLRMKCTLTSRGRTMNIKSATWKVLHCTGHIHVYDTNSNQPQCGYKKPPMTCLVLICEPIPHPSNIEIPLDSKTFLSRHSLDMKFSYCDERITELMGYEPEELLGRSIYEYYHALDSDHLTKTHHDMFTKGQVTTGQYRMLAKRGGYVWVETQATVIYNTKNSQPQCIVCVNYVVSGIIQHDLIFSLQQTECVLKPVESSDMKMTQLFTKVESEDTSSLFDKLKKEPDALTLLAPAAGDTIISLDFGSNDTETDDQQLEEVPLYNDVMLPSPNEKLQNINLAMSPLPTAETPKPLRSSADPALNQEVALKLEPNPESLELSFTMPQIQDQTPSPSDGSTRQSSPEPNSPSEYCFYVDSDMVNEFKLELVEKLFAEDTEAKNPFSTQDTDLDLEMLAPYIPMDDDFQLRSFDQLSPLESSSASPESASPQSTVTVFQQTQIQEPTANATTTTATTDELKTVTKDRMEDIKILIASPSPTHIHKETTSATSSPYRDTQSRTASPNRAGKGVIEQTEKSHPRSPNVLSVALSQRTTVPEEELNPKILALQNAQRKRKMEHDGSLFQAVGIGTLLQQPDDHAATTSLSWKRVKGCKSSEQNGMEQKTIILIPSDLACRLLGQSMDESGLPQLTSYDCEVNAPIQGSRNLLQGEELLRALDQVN
Chain of MOP4 (human) (Q99743 other isoform, or with tags, fused parts or gaps limits assumed): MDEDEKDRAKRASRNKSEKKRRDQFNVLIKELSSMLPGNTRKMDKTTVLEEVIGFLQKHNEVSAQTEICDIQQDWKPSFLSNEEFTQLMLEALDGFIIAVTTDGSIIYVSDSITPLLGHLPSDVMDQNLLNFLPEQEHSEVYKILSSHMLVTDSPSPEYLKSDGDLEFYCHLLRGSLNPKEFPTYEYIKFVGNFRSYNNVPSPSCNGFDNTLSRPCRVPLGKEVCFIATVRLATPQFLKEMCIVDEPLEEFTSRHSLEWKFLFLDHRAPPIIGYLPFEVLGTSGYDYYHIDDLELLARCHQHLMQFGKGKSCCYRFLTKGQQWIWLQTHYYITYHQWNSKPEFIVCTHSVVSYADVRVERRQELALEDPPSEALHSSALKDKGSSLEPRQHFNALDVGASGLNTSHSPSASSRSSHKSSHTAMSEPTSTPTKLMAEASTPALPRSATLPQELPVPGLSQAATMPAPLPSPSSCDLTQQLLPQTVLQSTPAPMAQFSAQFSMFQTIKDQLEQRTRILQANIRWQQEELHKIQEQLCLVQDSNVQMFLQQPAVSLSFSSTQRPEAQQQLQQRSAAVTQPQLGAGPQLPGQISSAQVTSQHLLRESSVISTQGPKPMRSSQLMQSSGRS

For “LexAAHR (from UniProt P0A7C2 1-202; P30561 1-805)”, the fold above background (lacZ reporter activity) in assay [1] came to 913 fold. In assay [2], this substance registered a fold relative to the LexAARNT-AHR interaction of 14.7 times. The substance also had a fold over the same pair in the absence of ligand in assay [3] of 6.4 fold.
In the case of “full-length MOP3 (cDNA form identified by the yeast interaction trap)”, the luciferase reporter with six copies of the M13 element, COS-1 cells in assay [4] is 3.6 fold; in assay [5], 3.3 fold. Moreover, the luciferase reporter with three copies of the M34 element, COS-1 cells stood at 3.3 fold in assay [6] and 5.6 fold in assay [7].
